Substitutions are numbered along the chain they refer to.
B1: N-terminally V5 epitope-tagged (full-length) [mouse] / C-terminal GFP-tagged Atg16L1 WT (full-length) [mouse] (parent)
chain 1: MTSEMESSLEVSFSSSCAVSGASGCLPPARSRIFKIIVIGDSNVGKTCLTYRFCAGRFPDRTEATIGVDFRERAVDIDGERIKIQLWDTAGLERFRKSMVQHYYRNVHAVVFVYDMTNMASFHSLPAWIEECKQHLLANDIPRILVGNKCDLRSAIQVPTDLAQKFADTHSMPLFETSAKNPNDNDHVEAIFMTLAHKLKSHKPLMLSQLPDNRISLKPETKPAVTCWC
chain 2: MSSGLRAADFPRWKRHIAEELRRRDRLQRQAFEEIILQYTKLLEKSDLHSVLTQKLQAEKHDMPNRHEISPGHDGAWNDSQLQEMAQLRIKHQEELTELHKKRGELAQLVIDLNNQMQQKDKEIQMNEAKISEYLQTISDLETNCLDLRTKLQDLEVANQTLKDEYDALQITFTALEEKLRKTTEENQELVTRWMAEKAQEANRLNAENEKDSRRRQARLQKELAEAAKEPLPVEQDDDIEVIVDETSDHTEETSPVRAVSRAATKRLSQPAGGLLDSITNIFGRRSVSSIPVPQDIMDTHPASGKDVRVPTTASYVFDAHDGEVNAVQFSPGSRLLATGGMDRRVKLWEAFGDKCEFKGSLSGSNAGITSIEFDSAGAYLLAASNDFASRIWTVDDYRLRHTLTGHSGKVLSAKFLLDNARIVSGSHDRTLKLWDLRSKVCIKTVFAGSSCNDIVCTEQCVMSGHFDKKIRFWDIRSESVVREMELLGKITALDLNPERTELLSCSRDDLLKVIDLRTNAVKQTFSAPGFKCGSDWTRVVFSPDGSYVAAGSAEGSLYVWSVLTGKVEKVLSKQHSSSINAVAWAPSGLHVVSVDKGSRAVLWAQP
B2: N-terminally V5 epitope-tagged WT (full-length) [mouse] / C-terminal GFP-tagged Atg16L1 WT (full-length) [mouse] (parent)
chain 1: B1 chain 1 with L92Q
chain 2: B1 chain 2

Variants of: B1
Assay: GFP co-immunoprecipitation, western blot band quantification
Details: with C-terminal GFP-tagged Atg16L1 WT (full-length) [mouse]; Overexpression was done in HEK293 cells; read off a plot

**Q.** How did the response turn out when chain 1 F70E was run?
**A.** The response was 0.32 a.u.

**Q.** chain 1 F70A was tested. Which response did it give?
**A.** The response was 0.04 a.u.

Same assay, conditions: with N-terminally V5 epitope-tagged Rab33B Q92L (full-length) [mouse]; Overexpression was done in HEK293 cells; read off a plot

**Q.** With chain 2 N206K as the variant, how does the response read?
**A.** The response was 0.12 a.u.

**Q.** chain 2 A202W was tested. Which response did it give?
**A.** The response was 0.06 a.u.

**Q.** chain 2 K198A was tested. Which response did it give?
**A.** Its response is 0.13 a.u.

Variants of: B2
Assay: as above
Details: with C-terminal GFP-tagged Atg16L1 WT (full-length) [mouse]; Overexpression was done in HEK293 cells; read off a plot

**Q.** With chain 1 T47N as the variant, how does the response read?
**A.** The response was 0.6 a.u.
